Results as given in paper PMC11193222, “The serine-rich repeat glycoprotein Srr2 mediates Streptococcus agalactiae interaction with host fibronectin” (BMC Microbiology, 2024).

B1: recombinant Srr2 binding region (rSrr2-BR) (domain or fragment)
chain: EAATTARVQPRAMRVVSSASDMETLPAALISGEGDVTTVQGQDVTDKLQNLDIKLSGGVQAKAGVINMDKSESMHMSLKFTIDSVNRGDTFEIKLSDNIDTNGASNYSIVEPIKSPTGEVYATGIYDSQKKSIVYSFTDFAASKNNINGILDIPLWPDDTTVQNTKEDVLFSVKIKDQEATIKETVKYDPPVRIDFAGGVSVDSRITNIDDVGKKMTYISQINVDGKSLYNYNGLYTRIYNYSKESTADLKNSTIKIYKTTSDNIVESMVQDYSSMEDVTSKFANSYPEKGWYDIYWGQFIASNETYVIVVETPFTNAVTLNTTLSDYNENNGVEHNHTYSSESGYSDVNAQ

Tests used:
[1] = target: recombinant Srr2 binding region (rSrr2-BR) (Streptococcus agalactiae (GBS) strain BM110) (UniProt Q3S2Y8); experiment: SPR; rSrr2 proteins amine-coupled to a CM5 chip (Biacore X-100); Fn injected; 25 °C, HEPES-EP+ pH 7.4, 0.15 M NaCl, 30 uL/min; steady-state fit, 1:1 model
[2] = target: recombinant Srr2 binding region (rSrr2-BR) (Streptococcus agalactiae (GBS) strain BM110) (UniProt Q3S2Y8); experiment: ELISA; Srr2 proteins coated on microtiter wells (1 ug/well, 0.1 M sodium carbonate pH 9.5); soluble Fn (up to 240 nM) or Fbg (up to 7.5 nM) for 1 h; detected with mouse anti-Fn or anti-Fbg IgG; apparent Kd; in a further set increasing NaCl (0 to 1 M) strongly impaired the binding to rSrr2-BR
[3] = target: human plasma fibronectin (Fn) (human); experiment: ELISA; apparent; soluble Srr2-BR on immobilized Fn
human plasma fibronectin (Fn) (human), sequence (P02751 other isoform, or with tags, fused parts or gaps, chain 1 of 2): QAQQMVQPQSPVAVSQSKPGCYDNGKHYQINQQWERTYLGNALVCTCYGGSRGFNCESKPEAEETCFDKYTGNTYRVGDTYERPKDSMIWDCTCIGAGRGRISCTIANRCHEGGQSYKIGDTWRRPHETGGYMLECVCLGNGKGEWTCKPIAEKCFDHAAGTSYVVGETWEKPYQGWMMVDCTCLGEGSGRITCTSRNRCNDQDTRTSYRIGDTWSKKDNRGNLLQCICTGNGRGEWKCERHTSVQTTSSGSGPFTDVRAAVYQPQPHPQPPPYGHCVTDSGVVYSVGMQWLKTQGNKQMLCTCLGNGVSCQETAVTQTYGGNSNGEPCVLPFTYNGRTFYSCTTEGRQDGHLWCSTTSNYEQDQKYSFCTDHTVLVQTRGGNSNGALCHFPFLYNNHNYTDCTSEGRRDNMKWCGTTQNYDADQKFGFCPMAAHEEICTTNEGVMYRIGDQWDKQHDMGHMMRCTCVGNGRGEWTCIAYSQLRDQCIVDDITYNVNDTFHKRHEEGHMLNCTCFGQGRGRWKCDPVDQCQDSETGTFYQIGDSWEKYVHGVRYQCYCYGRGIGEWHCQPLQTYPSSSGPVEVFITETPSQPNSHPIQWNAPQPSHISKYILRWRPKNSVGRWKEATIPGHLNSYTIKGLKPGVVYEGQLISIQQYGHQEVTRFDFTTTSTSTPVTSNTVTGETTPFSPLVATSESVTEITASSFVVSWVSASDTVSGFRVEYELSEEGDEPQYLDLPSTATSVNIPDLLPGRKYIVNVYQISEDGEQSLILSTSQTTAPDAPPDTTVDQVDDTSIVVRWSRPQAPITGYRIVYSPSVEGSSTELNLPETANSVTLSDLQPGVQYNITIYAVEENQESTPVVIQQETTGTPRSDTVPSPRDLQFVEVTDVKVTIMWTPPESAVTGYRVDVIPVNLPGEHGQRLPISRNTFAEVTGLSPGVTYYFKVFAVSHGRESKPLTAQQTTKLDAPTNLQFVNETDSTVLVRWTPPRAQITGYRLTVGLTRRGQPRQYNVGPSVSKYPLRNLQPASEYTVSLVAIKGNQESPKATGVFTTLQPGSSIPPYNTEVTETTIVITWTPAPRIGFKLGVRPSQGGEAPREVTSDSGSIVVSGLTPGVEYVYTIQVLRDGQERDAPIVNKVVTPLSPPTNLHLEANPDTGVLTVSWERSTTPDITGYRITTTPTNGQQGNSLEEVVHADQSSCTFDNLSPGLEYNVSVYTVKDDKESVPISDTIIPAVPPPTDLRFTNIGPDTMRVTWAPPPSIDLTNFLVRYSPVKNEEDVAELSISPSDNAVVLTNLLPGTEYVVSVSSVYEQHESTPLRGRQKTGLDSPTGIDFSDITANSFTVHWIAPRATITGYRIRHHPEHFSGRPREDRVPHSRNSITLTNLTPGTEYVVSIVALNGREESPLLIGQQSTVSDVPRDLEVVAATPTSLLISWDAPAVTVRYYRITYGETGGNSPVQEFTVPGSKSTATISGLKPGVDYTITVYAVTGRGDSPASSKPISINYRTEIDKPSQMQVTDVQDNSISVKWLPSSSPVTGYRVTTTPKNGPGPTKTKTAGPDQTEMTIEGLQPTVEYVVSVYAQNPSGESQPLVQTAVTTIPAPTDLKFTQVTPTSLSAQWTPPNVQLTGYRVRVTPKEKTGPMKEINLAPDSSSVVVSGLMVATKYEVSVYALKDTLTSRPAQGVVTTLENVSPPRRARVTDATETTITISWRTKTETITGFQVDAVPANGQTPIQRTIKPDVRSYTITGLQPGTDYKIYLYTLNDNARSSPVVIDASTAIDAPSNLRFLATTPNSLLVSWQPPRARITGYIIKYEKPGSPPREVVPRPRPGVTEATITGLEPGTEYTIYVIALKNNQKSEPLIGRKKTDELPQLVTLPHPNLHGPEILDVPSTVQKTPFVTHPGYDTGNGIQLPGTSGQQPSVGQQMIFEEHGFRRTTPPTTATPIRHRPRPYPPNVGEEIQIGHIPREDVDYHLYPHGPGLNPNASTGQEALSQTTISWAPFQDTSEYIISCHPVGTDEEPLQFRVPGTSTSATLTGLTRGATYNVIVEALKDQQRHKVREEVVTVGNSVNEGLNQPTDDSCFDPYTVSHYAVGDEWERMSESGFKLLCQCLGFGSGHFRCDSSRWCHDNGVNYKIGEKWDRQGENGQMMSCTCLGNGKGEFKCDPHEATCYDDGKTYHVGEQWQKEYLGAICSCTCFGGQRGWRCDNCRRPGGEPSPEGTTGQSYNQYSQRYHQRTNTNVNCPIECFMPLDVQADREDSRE
human plasma fibronectin (Fn) (human), sequence (P02751 other isoform, or with tags, fused parts or gaps, chain 2 of 2): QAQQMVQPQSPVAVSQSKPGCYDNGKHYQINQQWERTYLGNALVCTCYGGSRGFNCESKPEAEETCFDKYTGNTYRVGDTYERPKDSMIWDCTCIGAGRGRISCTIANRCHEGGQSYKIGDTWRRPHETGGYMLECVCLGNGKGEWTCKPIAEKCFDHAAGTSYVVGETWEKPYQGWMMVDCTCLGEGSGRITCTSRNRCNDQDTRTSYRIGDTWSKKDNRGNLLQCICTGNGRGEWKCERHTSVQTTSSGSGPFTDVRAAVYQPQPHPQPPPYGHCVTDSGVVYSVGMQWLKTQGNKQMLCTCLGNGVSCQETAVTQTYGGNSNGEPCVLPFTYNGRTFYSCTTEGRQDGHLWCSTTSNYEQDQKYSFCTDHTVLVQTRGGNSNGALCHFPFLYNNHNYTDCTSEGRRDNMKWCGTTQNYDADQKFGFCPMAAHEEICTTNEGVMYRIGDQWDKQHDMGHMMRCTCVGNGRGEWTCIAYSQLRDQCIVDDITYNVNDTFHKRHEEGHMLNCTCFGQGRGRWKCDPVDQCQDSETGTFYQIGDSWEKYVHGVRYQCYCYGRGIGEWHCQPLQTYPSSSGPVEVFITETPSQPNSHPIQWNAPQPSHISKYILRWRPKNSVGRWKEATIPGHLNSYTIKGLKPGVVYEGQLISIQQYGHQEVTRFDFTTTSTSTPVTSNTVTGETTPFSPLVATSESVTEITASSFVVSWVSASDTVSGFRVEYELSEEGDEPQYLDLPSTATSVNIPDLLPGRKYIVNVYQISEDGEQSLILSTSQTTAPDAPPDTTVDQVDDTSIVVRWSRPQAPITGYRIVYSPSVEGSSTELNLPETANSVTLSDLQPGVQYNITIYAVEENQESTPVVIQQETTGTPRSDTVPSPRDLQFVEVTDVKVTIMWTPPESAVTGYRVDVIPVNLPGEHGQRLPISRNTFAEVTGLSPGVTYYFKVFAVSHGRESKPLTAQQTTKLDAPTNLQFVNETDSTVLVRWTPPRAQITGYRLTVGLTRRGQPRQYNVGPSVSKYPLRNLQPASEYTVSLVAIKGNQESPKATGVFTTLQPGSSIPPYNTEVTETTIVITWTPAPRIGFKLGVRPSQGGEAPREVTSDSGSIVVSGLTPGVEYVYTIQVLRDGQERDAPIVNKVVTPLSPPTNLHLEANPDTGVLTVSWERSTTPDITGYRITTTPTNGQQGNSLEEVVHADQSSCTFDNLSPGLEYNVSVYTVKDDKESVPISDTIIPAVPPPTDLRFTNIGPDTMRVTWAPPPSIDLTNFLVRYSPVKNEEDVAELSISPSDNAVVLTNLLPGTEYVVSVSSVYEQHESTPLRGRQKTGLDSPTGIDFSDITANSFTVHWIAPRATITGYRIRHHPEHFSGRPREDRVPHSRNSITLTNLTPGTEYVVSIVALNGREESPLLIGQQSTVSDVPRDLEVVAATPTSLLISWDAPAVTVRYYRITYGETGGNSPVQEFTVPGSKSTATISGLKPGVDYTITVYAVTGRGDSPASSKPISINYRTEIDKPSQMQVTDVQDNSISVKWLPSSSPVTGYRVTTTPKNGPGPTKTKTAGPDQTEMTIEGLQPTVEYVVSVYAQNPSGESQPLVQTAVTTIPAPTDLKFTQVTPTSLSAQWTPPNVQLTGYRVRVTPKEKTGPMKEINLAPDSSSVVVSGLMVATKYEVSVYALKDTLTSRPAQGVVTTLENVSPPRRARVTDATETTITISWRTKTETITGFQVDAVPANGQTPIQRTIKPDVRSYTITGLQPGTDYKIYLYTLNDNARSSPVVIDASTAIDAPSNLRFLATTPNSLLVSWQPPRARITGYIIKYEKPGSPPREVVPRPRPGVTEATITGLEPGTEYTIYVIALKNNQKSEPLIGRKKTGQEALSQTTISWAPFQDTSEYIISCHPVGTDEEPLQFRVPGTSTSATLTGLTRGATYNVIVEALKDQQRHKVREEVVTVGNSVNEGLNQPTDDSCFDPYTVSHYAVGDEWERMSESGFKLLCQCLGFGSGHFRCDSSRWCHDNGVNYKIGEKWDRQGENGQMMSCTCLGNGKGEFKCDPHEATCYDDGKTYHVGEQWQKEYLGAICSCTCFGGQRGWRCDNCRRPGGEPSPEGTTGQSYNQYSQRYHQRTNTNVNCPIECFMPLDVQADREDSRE

human fibrinogen (Fbg) = human fibrinogen (Fbg) (human, UniProt P02671 36-866); P02675 45-491; P02679 27-453, Plasma-derived, disulfide-linked hexamer, glycosylated. Chains are the circulating forms by convention: A-alpha 610 aa, B-beta 461 aa, gamma-A 411 aa (the canonical P02679 sequence is gamma-B, so gamm); experiment: ELISA; Srr2 proteins coated on microtiter wells (1 ug/well, 0.1 M sodium carbonate pH 9.5); soluble Fn (up to 240 nM) or Fbg (up to 7.5 nM) for 1 h; detected with mouse anti-Fn or anti-Fbg IgG; apparent Kd; in a further set increasing NaCl (0 to 1 M) strongly impaired the binding to rSrr2-BR; details: both partners purified

Row | Molecule | Kd [1] | Kd [2] | Kd [3] | Kd (human fibrinogen (Fbg))
1 | human plasma fibronectin (Fn) (natural protein) | 92 nM | 30 nM |  | 
2 | B1 |  |  | 629 nM | 0.45 ± 0.02 nM
